Experimental data published in patent US20230357348A1 (AstraZeneca / MedImmune, published 2023).
Starred links: 1 amine or outer side, 2 acyl side, 3 side chain; linkers in the order of their positions; H or OH if unused. Non-standard residues stand in square brackets, D forms with d. Groups on a side chain read outwards from the residue. No end group written: not given here. *: point of attachment. C18 diacid = O=C(O)CCCCCCCCCCCCCCCCC(=O)*; γGlu = O=C(O)[C@H](CCC(=O)[*:2])N[*:1]; αMeF = C[C@](N)(Cc1ccccc1)C(=O)O; AEEA = NCCOCCOCC(=O)O; Aib = CC(C)(N)C(=O)O

Key:
[1] = biological target: human GLP-1 receptor (hGLP-1R) (human, UniProt P43220 24-463); assay: cell-based or functional assay
[2] = biological target: human glucagon receptor (hGCGR) (human, UniProt P47871 26-477); assay: cell-based or functional assay
Chain of human glucagon receptor (hGCGR) (P47871 26-477): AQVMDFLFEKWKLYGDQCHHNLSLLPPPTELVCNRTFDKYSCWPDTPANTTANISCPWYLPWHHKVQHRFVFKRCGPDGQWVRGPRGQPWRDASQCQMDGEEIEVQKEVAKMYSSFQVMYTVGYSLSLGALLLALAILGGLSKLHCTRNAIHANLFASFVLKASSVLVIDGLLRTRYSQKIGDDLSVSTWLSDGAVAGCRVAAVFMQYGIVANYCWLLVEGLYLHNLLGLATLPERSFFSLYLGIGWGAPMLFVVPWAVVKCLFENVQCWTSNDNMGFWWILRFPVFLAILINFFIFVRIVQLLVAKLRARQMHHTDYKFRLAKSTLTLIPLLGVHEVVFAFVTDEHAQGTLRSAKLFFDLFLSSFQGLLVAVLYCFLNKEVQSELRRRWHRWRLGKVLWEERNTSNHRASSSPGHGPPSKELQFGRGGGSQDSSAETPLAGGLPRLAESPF

Binder	hGLP-1R EC50 (pM) [1]	hGluc-R EC50 (pM) [2]
H[Aib]QGTFTSDVSK[αMeF]LDSK([AEEA-AEEA-γGlu-C18 diacid])RARDFVAWLL[Aib]TE-OH (N-terminus assumed; SMILES CC(C)C[C@H](NC(=O)[C@H](Cc1c[nH]c2ccccc12)NC(=O)[C@H](C)NC(=O)[C@@H](NC(=O)[C@H](Cc1ccccc1)NC(=O)[C@H](CC(=O)O)NC(=O)[C@H](CCCNC(=N)N)NC(=O)[C@H](C)NC(=O)[C@H](CCCNC(=N)N)NC(=O)[C@H](CCCCNC(=O)COCCOCCNC(=O)COCCOCCNC(=O)CC[C@H](NC(=O)CCCCCCCCCCCCCCCCC(=O)O)C(=O)O)NC(=O)[C@H](CO)NC(=O)[C@H](CC(=O)O)NC(=O)[C@H](CC(C)C)NC(=O)[C@](C)(Cc1ccccc1)NC(=O)[C@H](CCCCN)NC(=O)[C@H](CO)NC(=O)[C@@H](NC(=O)[C@H](CC(=O)O)NC(=O)[C@H](CO)NC(=O)[C@@H](NC(=O)[C@H](Cc1ccccc1)NC(=O)[C@@H](NC(=O)CNC(=O)[C@H](CCC(N)=O)NC(=O)C(C)(C)NC(=O)[C@@H](N)Cc1c[nH]cn1)[C@@H](C)O)[C@@H](C)O)C(C)C)C(C)C)C(=O)N[C@@H](CC(C)C)C(=O)NC(C)(C)C(=O)N[C@H](C(=O)N[C@@H](CCC(=O)O)C(=O)O)[C@@H](C)O) [Peptide 168]	448 pM	886 pM
H[Aib]QGTFTSDVSK[αMeF]LDSK([AEEA-AEEA-γGlu-C18 diacid])RAQDFVEWLL[Aib]T-OH (N-terminus assumed; SMILES CC(C)C[C@H](NC(=O)[C@H](Cc1c[nH]c2ccccc12)NC(=O)[C@H](CCC(=O)O)NC(=O)[C@@H](NC(=O)[C@H](Cc1ccccc1)NC(=O)[C@H](CC(=O)O)NC(=O)[C@H](CCC(N)=O)NC(=O)[C@H](C)NC(=O)[C@H](CCCNC(=N)N)NC(=O)[C@H](CCCCNC(=O)COCCOCCNC(=O)COCCOCCNC(=O)CC[C@H](NC(=O)CCCCCCCCCCCCCCCCC(=O)O)C(=O)O)NC(=O)[C@H](CO)NC(=O)[C@H](CC(=O)O)NC(=O)[C@H](CC(C)C)NC(=O)[C@](C)(Cc1ccccc1)NC(=O)[C@H](CCCCN)NC(=O)[C@H](CO)NC(=O)[C@@H](NC(=O)[C@H](CC(=O)O)NC(=O)[C@H](CO)NC(=O)[C@@H](NC(=O)[C@H](Cc1ccccc1)NC(=O)[C@@H](NC(=O)CNC(=O)[C@H](CCC(N)=O)NC(=O)C(C)(C)NC(=O)[C@@H](N)Cc1c[nH]cn1)[C@@H](C)O)[C@@H](C)O)C(C)C)C(C)C)C(=O)N[C@@H](CC(C)C)C(=O)NC(C)(C)C(=O)N[C@H](C(=O)O)[C@@H](C)O) [Peptide 38]	75.6 pM	441 pM
H[Aib]QGTFTSDVSK[αMeF]LDTK([AEEA-AEEA-γGlu-C18 diacid])RAQDFVQWLL[Aib]T-OH (N-terminus assumed; SMILES CC(C)C[C@H](NC(=O)[C@H](Cc1c[nH]c2ccccc12)NC(=O)[C@H](CCC(N)=O)NC(=O)[C@@H](NC(=O)[C@H](Cc1ccccc1)NC(=O)[C@H](CC(=O)O)NC(=O)[C@H](CCC(N)=O)NC(=O)[C@H](C)NC(=O)[C@H](CCCNC(=N)N)NC(=O)[C@H](CCCCNC(=O)COCCOCCNC(=O)COCCOCCNC(=O)CC[C@H](NC(=O)CCCCCCCCCCCCCCCCC(=O)O)C(=O)O)NC(=O)[C@@H](NC(=O)[C@H](CC(=O)O)NC(=O)[C@H](CC(C)C)NC(=O)[C@](C)(Cc1ccccc1)NC(=O)[C@H](CCCCN)NC(=O)[C@H](CO)NC(=O)[C@@H](NC(=O)[C@H](CC(=O)O)NC(=O)[C@H](CO)NC(=O)[C@@H](NC(=O)[C@H](Cc1ccccc1)NC(=O)[C@@H](NC(=O)CNC(=O)[C@H](CCC(N)=O)NC(=O)C(C)(C)NC(=O)[C@@H](N)Cc1c[nH]cn1)[C@@H](C)O)[C@@H](C)O)C(C)C)[C@@H](C)O)C(C)C)C(=O)N[C@@H](CC(C)C)C(=O)NC(C)(C)C(=O)N[C@H](C(=O)O)[C@@H](C)O) [Peptide 35]	83.7 pM	335 pM
H[Aib]QGTFTSDVSK[αMeF]LDSK([AEEA-AEEA-γGlu-C18 diacid])RAQDFVRWLL[Aib]TE-OH (N-terminus assumed; SMILES CC(C)C[C@H](NC(=O)[C@H](Cc1c[nH]c2ccccc12)NC(=O)[C@H](CCCNC(=N)N)NC(=O)[C@@H](NC(=O)[C@H](Cc1ccccc1)NC(=O)[C@H](CC(=O)O)NC(=O)[C@H](CCC(N)=O)NC(=O)[C@H](C)NC(=O)[C@H](CCCNC(=N)N)NC(=O)[C@H](CCCCNC(=O)COCCOCCNC(=O)COCCOCCNC(=O)CC[C@H](NC(=O)CCCCCCCCCCCCCCCCC(=O)O)C(=O)O)NC(=O)[C@H](CO)NC(=O)[C@H](CC(=O)O)NC(=O)[C@H](CC(C)C)NC(=O)[C@](C)(Cc1ccccc1)NC(=O)[C@H](CCCCN)NC(=O)[C@H](CO)NC(=O)[C@@H](NC(=O)[C@H](CC(=O)O)NC(=O)[C@H](CO)NC(=O)[C@@H](NC(=O)[C@H](Cc1ccccc1)NC(=O)[C@@H](NC(=O)CNC(=O)[C@H](CCC(N)=O)NC(=O)C(C)(C)NC(=O)[C@@H](N)Cc1c[nH]cn1)[C@@H](C)O)[C@@H](C)O)C(C)C)C(C)C)C(=O)N[C@@H](CC(C)C)C(=O)NC(C)(C)C(=O)N[C@H](C(=O)N[C@@H](CCC(=O)O)C(=O)O)[C@@H](C)O) [Peptide 39]	76.1 pM	194 pM
H[Aib]QGTFTSDVSK[αMeF]LDSK([AEEA-AEEA-γGlu-C18 diacid])RAQDFVQWLL[Aib]E-OH (N-terminus assumed; SMILES CC(C)C[C@H](NC(=O)[C@H](Cc1c[nH]c2ccccc12)NC(=O)[C@H](CCC(N)=O)NC(=O)[C@@H](NC(=O)[C@H](Cc1ccccc1)NC(=O)[C@H](CC(=O)O)NC(=O)[C@H](CCC(N)=O)NC(=O)[C@H](C)NC(=O)[C@H](CCCNC(=N)N)NC(=O)[C@H](CCCCNC(=O)COCCOCCNC(=O)COCCOCCNC(=O)CC[C@H](NC(=O)CCCCCCCCCCCCCCCCC(=O)O)C(=O)O)NC(=O)[C@H](CO)NC(=O)[C@H](CC(=O)O)NC(=O)[C@H](CC(C)C)NC(=O)[C@](C)(Cc1ccccc1)NC(=O)[C@H](CCCCN)NC(=O)[C@H](CO)NC(=O)[C@@H](NC(=O)[C@H](CC(=O)O)NC(=O)[C@H](CO)NC(=O)[C@@H](NC(=O)[C@H](Cc1ccccc1)NC(=O)[C@@H](NC(=O)CNC(=O)[C@H](CCC(N)=O)NC(=O)C(C)(C)NC(=O)[C@@H](N)Cc1c[nH]cn1)[C@@H](C)O)[C@@H](C)O)C(C)C)C(C)C)C(=O)N[C@@H](CC(C)C)C(=O)NC(C)(C)C(=O)N[C@@H](CCC(=O)O)C(=O)O) [Peptide 34]	82.4 pM	161 pM
H[Aib]QGTFTSDVSK[αMeF]LDSK([AEEA-AEEA-γGlu-C18 diacid])RARDFVQWLL[Aib]T-OH (N-terminus assumed; SMILES CC(C)C[C@H](NC(=O)[C@H](Cc1c[nH]c2ccccc12)NC(=O)[C@H](CCC(N)=O)NC(=O)[C@@H](NC(=O)[C@H](Cc1ccccc1)NC(=O)[C@H](CC(=O)O)NC(=O)[C@H](CCCNC(=N)N)NC(=O)[C@H](C)NC(=O)[C@H](CCCNC(=N)N)NC(=O)[C@H](CCCCNC(=O)COCCOCCNC(=O)COCCOCCNC(=O)CC[C@H](NC(=O)CCCCCCCCCCCCCCCCC(=O)O)C(=O)O)NC(=O)[C@H](CO)NC(=O)[C@H](CC(=O)O)NC(=O)[C@H](CC(C)C)NC(=O)[C@](C)(Cc1ccccc1)NC(=O)[C@H](CCCCN)NC(=O)[C@H](CO)NC(=O)[C@@H](NC(=O)[C@H](CC(=O)O)NC(=O)[C@H](CO)NC(=O)[C@@H](NC(=O)[C@H](Cc1ccccc1)NC(=O)[C@@H](NC(=O)CNC(=O)[C@H](CCC(N)=O)NC(=O)C(C)(C)NC(=O)[C@@H](N)Cc1c[nH]cn1)[C@@H](C)O)[C@@H](C)O)C(C)C)C(C)C)C(=O)N[C@@H](CC(C)C)C(=O)NC(C)(C)C(=O)N[C@H](C(=O)O)[C@@H](C)O) [Peptide 36]	43.1 pM	278 pM
H[Aib]QGTFTSDVSK[αMeF]LDSK([AEEA-AEEA-γGlu-C18 diacid])RAQDFVQWLE[Aib]T-OH (N-terminus assumed; SMILES CC(C)C[C@H](NC(=O)[C@H](Cc1c[nH]c2ccccc12)NC(=O)[C@H](CCC(N)=O)NC(=O)[C@@H](NC(=O)[C@H](Cc1ccccc1)NC(=O)[C@H](CC(=O)O)NC(=O)[C@H](CCC(N)=O)NC(=O)[C@H](C)NC(=O)[C@H](CCCNC(=N)N)NC(=O)[C@H](CCCCNC(=O)COCCOCCNC(=O)COCCOCCNC(=O)CC[C@H](NC(=O)CCCCCCCCCCCCCCCCC(=O)O)C(=O)O)NC(=O)[C@H](CO)NC(=O)[C@H](CC(=O)O)NC(=O)[C@H](CC(C)C)NC(=O)[C@](C)(Cc1ccccc1)NC(=O)[C@H](CCCCN)NC(=O)[C@H](CO)NC(=O)[C@@H](NC(=O)[C@H](CC(=O)O)NC(=O)[C@H](CO)NC(=O)[C@@H](NC(=O)[C@H](Cc1ccccc1)NC(=O)[C@@H](NC(=O)CNC(=O)[C@H](CCC(N)=O)NC(=O)C(C)(C)NC(=O)[C@@H](N)Cc1c[nH]cn1)[C@@H](C)O)[C@@H](C)O)C(C)C)C(C)C)C(=O)N[C@@H](CCC(=O)O)C(=O)NC(C)(C)C(=O)N[C@H](C(=O)O)[C@@H](C)O) [Peptide 33]	213 pM	548 pM
H[Aib]QGTFTSDVSK[αMeF]LDSK([AEEA-AEEA-γGlu-C18 diacid])RAEDFVQWLL[Aib]T-OH (N-terminus assumed; SMILES CC(C)C[C@H](NC(=O)[C@H](Cc1c[nH]c2ccccc12)NC(=O)[C@H](CCC(N)=O)NC(=O)[C@@H](NC(=O)[C@H](Cc1ccccc1)NC(=O)[C@H](CC(=O)O)NC(=O)[C@H](CCC(=O)O)NC(=O)[C@H](C)NC(=O)[C@H](CCCNC(=N)N)NC(=O)[C@H](CCCCNC(=O)COCCOCCNC(=O)COCCOCCNC(=O)CC[C@H](NC(=O)CCCCCCCCCCCCCCCCC(=O)O)C(=O)O)NC(=O)[C@H](CO)NC(=O)[C@H](CC(=O)O)NC(=O)[C@H](CC(C)C)NC(=O)[C@](C)(Cc1ccccc1)NC(=O)[C@H](CCCCN)NC(=O)[C@H](CO)NC(=O)[C@@H](NC(=O)[C@H](CC(=O)O)NC(=O)[C@H](CO)NC(=O)[C@@H](NC(=O)[C@H](Cc1ccccc1)NC(=O)[C@@H](NC(=O)CNC(=O)[C@H](CCC(N)=O)NC(=O)C(C)(C)NC(=O)[C@@H](N)Cc1c[nH]cn1)[C@@H](C)O)[C@@H](C)O)C(C)C)C(C)C)C(=O)N[C@@H](CC(C)C)C(=O)NC(C)(C)C(=O)N[C@H](C(=O)O)[C@@H](C)O) [Peptide 37]	68.6 pM	2750 pM
